Test results taken from patent publication US20250296971A1, “GASTRIC INHIBITORY PEPTIDE RECEPTOR LIGANDS” (priority 2021, published 2025).
*1 amine or outer side, *2 acyl side, *3 side chain or, on linkers, in order; H or OH if unused. Bridges are numbered along the chain shown (N, C = ends). Primed or numbered codes have the meaning given here. Where no end group is shown, it is not given here. [ ]: non-standard residue; d: D form. The star is where a group is joined. Ttds = 1,13-diamino-4,7,10-trioxatridecan-succinamic acid, NCCCOCCOCCOCCCNC(=O)CCC(=O)*; APAc″ = 4-amino-1-carboxymethylpiperidine, NC1CCN(CC(=O)*)CC1; DOTA = O=C(O)CN1CCN(CC(=O)O)CCN(CC(=O)*)CCN(CC(=O)O)CC1; Trp(5-Cl) = N[C@@H](Cc1c[nH]c2ccc(Cl)cc12)C(=O)O; Phe(3,4-Cl2) = N[C@@H](Cc1ccc(Cl)c(Cl)c1)C(=O)O; Pyridine(2,6-diCH2) = c1cc(C[*:1])nc(C[*:2])c1; Trp(6-F) = N[C@@H](Cc1c[nH]c2cc(F)ccc12)C(=O)O; 2Lut″ = 2,6-lutidylidene linking two thiols; Oic = O=C(O)[C@@H]1C[C@@H]2CCCC[C@@H]2N1; Phe(3-Cl) = N[C@@H](Cc1cccc(Cl)c1)C(=O)O; Phe(2-Cl) = N[C@@H](Cc1ccccc1Cl)C(=O)O; mXylylene = c1cc(C[*:1])cc(C[*:2])c1; Cya = N[C@@H](CS(=O)(=O)O)C(=O)O; Hyp = O=C(O)[C@@H]1C[C@@H](O)CN1; Cysteamide = C(CS[*:3])N[*:1]; Thp = NC1(C(=O)O)CCOCC1; Aib = CC(C)(N)C(=O)O; Sar = CNCC(=O)O

B1: DOTA-APAc-Asp-Gly-5Clw-Hyp-Glu-leu-[Cys(2Lut)-Thp-Leu-Ile-AET] (peptide)
peptide: {DOTA-APAc″}-DG[Trp(5-Cl)][Hyp]E[dL]C[Thp]LI[Cysteamide]
modifications: linker (positions not given here) via Pyridine(2,6-diCH2); not fully specified (bridges); printed as DOTA-APAc-Asp-Gly-5Clw-Hyp-Glu-leu-[Cys(2Lut)-Thp-Leu-Ile-AET]
B2: Ac-Asp-Trp-5Clw-Hyp-Glu-leu-[Cys(2Lut)-Thp-Leu-Ser-Cys]-NH2 (peptide)
peptide: Ac-DW[Trp(5-Cl)][Hyp]E[dL]C[Thp]LSC-NH2
modifications: linker 7-11 via Pyridine(2,6-diCH2)
SMILES: CC(=O)N[C@@H](CC(=O)O)C(=O)N[C@@H](Cc1c[nH]c2ccccc12)C(=O)N[C@@H](Cc1c[nH]c2ccc(Cl)cc12)C(=O)N1C[C@H](O)C[C@H]1C(=O)N[C@@H](CCC(=O)O)C(=O)N[C@H](CC(C)C)C(=O)N[C@H]1CSCc2cccc(n2)CSC[C@@H](C(N)=O)NC(=O)[C@H](CO)NC(=O)[C@H](CC(C)C)NC(=O)C2(CCOCC2)NC1=O
B3: Ac-Asp-Eaa-Eaa-Hyp-Glu-leu-[Cys(2Lut)-Thp-Leu-Ile-Cys]-NH2 (peptide)
peptide: Ac-D[Phe(3,4-Cl2)][Phe(3,4-Cl2)][Hyp]E[dL]C[Thp]LIC-NH2
modifications: linker 7-11 via Pyridine(2,6-diCH2)
SMILES: CC[C@H](C)[C@@H]1NC(=O)[C@H](CC(C)C)NC(=O)C2(CCOCC2)NC(=O)[C@@H](NC(=O)[C@@H](CC(C)C)NC(=O)[C@H](CCC(=O)O)NC(=O)[C@@H]2C[C@@H](O)CN2C(=O)[C@H](Cc2ccc(Cl)c(Cl)c2)NC(=O)[C@H](Cc2ccc(Cl)c(Cl)c2)NC(=O)[C@H](CC(=O)O)NC(C)=O)CSCc2cccc(n2)CSC[C@@H](C(N)=O)NC1=O
B4: Ac-Asp-Eaa-Eaa-Oic-Glu-leu-[Cys(2Lut)-Thp-Leu-Ile-Cys]-NH2 (peptide)
peptide: Ac-D[Phe(3,4-Cl2)][Phe(3,4-Cl2)][Oic]E[dL]C[Thp]LIC-NH2
modifications: linker 7-11 via Pyridine(2,6-diCH2)
SMILES: CC[C@H](C)[C@@H]1NC(=O)[C@H](CC(C)C)NC(=O)C2(CCOCC2)NC(=O)[C@@H](NC(=O)[C@@H](CC(C)C)NC(=O)[C@H](CCC(=O)O)NC(=O)[C@@H]2C[C@@H]3CCCC[C@@H]3N2C(=O)[C@H](Cc2ccc(Cl)c(Cl)c2)NC(=O)[C@H](Cc2ccc(Cl)c(Cl)c2)NC(=O)[C@H](CC(=O)O)NC(C)=O)CSCc2cccc(n2)CSC[C@@H](C(N)=O)NC1=O
B5: Ac-Asp-Eaa-Eaa-Nmg-Glu-leu-[Cys(2Lut)-Thp-Leu-Ile-Cys]-NH2 (peptide)
peptide: Ac-D[Phe(3,4-Cl2)][Phe(3,4-Cl2)][Sar]E[dL]C[Thp]LIC-NH2
modifications: linker 7-11 via Pyridine(2,6-diCH2)
SMILES: CC[C@H](C)[C@@H]1NC(=O)[C@H](CC(C)C)NC(=O)C2(CCOCC2)NC(=O)[C@@H](NC(=O)[C@@H](CC(C)C)NC(=O)[C@H](CCC(=O)O)NC(=O)CN(C)C(=O)[C@H](Cc2ccc(Cl)c(Cl)c2)NC(=O)[C@H](Cc2ccc(Cl)c(Cl)c2)NC(=O)[C@H](CC(=O)O)NC(C)=O)CSCc2cccc(n2)CSC[C@@H](C(N)=O)NC1=O

Target: human Gastric Inhibitory Peptide Receptor (GIPR) (human) (UniProt P48546)
Assay: FACS competition vs biotinylated GIP-057 on CHO-K1-hGIPR cells; category C: pIC50 6.1-7.0

Sequence of human Gastric Inhibitory Peptide Receptor (GIPR) (human) (P48546 22-466 limits assumed): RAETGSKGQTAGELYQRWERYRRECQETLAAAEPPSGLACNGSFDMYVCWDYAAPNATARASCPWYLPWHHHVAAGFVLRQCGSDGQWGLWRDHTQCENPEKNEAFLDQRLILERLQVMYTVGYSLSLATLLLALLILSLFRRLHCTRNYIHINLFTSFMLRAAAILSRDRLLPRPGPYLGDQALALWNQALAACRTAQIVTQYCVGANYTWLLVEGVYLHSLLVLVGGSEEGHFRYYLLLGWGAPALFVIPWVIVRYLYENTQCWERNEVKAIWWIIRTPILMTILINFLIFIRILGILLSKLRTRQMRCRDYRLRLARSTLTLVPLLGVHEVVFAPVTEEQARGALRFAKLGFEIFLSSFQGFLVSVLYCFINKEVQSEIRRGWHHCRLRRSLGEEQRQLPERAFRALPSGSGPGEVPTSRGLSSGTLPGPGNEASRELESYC

Row | pIC50 [pic50] | Binder
1 | 6.1 to 7 | Ac-D[Phe(2-Cl)][Trp(5-Cl)][Hyp]E[dL]C[Thp]LIC (linker 7-11 via Pyridine(2,6-diCH2); not fully specified (C-terminus)) [Ac-Asp-Ocf-5Clw-Hyp-Glu-leu-[Cys(2Lut)-Thp-Leu-Ile-Cys]-lys(DOTA)-NH2]
2 | 6.1 to 7 | Ac-DW[Phe(3-Cl)][Hyp]E[dL]C[Thp]LIC-NH2 (linker 7-11 via 2Lut″) [Ac-Asp-Trp-Mcf-Hyp-Glu-leu-[Cys(2Lut)-Thp-Leu-Ile-Cys]-NH2]
3 | 6.1 to 7 | Ac-[Cya]G[Trp(5-Cl)][Hyp]E[dL]C[Aib]LI[Cysteamide] (linker 7-11 via 2Lut″) [Ac-Cya-Gly-5Clw-Hyp-Glu-leu-[Cys(2Lut)-Aib-Leu-Ile-AET]]
4 | 6.1 to 7 | Ac-DW[Trp(5-Cl)][Hyp]E[dL]C[Thp]LIC-NH2 (disulfide 7-11) [Ac-Asp-Trp-5Clw-Hyp-Glu-leu-[Cys-Thp-Leu-Ile-Cys]-NH2]
5 | 6.1 to 7 | B1
6 | 6.1 to 7 | B2
7 | 6.1 to 7 | B3
8 | 6.1 to 7 | {DOTA-Ttds}-D[Trp(6-F)]WPE[dL]C[Aib]LI[Cysteamide] (linker 7-11 via mXylylene) [DOTA-Ttds-Asp-6Fw-Trp-Pro-Glu-leu-[Cys(3MeBn)-Aib-Leu-Ile-AET]]

Target: human Gastric Inhibitory Peptide Receptor (GIPR) (human) (UniProt P48546)
Assay: FACS competition vs biotinylated GIP-057 on CHO-K1-hGIPR cells; category D: pIC50 <=6.0

Row | pIC50 [pic50] | Binder
9 | < 6 | B4
10 | < 6 | B5
